Reference: patent US20140213531A1 (POLYPHOR, published 2014)
Bridges are numbered along the chain shown (N, C = ends). [ ]: non-standard residue; d: D form. Nle = CCCC[C@H](N)C(=O)O; Abu = CC[C@H](N)C(=O)O

T1: Elastase from human neutrophils (human, UniProt P08246 30-247, limits assumed)
T1 sequence (looked up): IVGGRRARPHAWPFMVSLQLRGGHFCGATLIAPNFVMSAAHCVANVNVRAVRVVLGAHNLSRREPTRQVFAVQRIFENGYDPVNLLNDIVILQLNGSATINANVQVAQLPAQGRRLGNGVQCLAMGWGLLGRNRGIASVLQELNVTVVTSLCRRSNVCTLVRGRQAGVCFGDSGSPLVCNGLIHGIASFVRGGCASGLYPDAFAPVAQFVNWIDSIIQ

T2: CathepsinG, from human neutrophils (human, UniProt P08311 21-244)
T2 sequence (looked up): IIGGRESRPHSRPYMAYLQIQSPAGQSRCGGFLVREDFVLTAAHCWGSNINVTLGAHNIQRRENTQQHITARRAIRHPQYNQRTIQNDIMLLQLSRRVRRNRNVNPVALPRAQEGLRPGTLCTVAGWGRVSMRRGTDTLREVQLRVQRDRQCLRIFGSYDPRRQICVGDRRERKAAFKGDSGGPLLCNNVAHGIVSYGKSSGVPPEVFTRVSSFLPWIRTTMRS

T3: Chymase, from human skin (human, UniProt P23946 22-247)
T3 sequence (looked up): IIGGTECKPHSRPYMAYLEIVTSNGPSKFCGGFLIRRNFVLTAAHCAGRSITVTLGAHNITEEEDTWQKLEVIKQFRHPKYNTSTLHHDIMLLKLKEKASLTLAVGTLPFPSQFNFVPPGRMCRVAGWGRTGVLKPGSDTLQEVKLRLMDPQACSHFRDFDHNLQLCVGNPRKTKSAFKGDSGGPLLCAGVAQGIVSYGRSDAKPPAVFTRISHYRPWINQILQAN


Legend:
Assay in all cases: cell-based or functional assay
[1] = biological target: T1, Elastase from human neutrophils
[2] = biological target: T2, CathepsinG, from human neutrophils
Chymase, from human skin = biological target: T3, Chymase, from human skin
[3] = biological target: Trypsin, Iodination grade, from human pancreas (human, UniProt P07477 24-247)

Binder	IC50 [1] [nmol]	IC50 [2] [nmol]	% inhibition at 100 µM (Chymase, from human skin) [%]	% inhibition at 100 µM [3] [%]	% inhibition at 100 µM [1] [%]
XCTTSIPPYCY (HELM PEPTIDE1{[Nle].C.T.T.S.I.P.P.Y.C.Y.[dP].P}$PEPTIDE1,PEPTIDE1,2:R3-10:R3|PEPTIDE1,PEPTIDE1,1:R1-13:R2$$$V2.0; SMILES CCCC[C@@H]1NC(=O)[C@@H]2CCCN2C(=O)[C@H]2CCCN2C(=O)[C@H](Cc2ccc(O)cc2)NC(=O)[C@@H]2CSSC[C@H](NC1=O)C(=O)N[C@@H]([C@@H](C)O)C(=O)N[C@@H]([C@@H](C)O)C(=O)N[C@@H](CO)C(=O)N[C@@H]([C@@H](C)CC)C(=O)N1CCC[C@H]1C(=O)N1CCC[C@H]1C(=O)N[C@@H](Cc1ccc(O)cc1)C(=O)N2) [Example 77]	68				
XCTKSDPPXCR (HELM PEPTIDE1{[O=C([C@@H](N[*:1])C1CCCCC1)[*:2]].C.T.K.S.D.P.P.[Cha].C.R.[dP].P}$PEPTIDE1,PEPTIDE1,2:R3-10:R3|PEPTIDE1,PEPTIDE1,1:R1-13:R2$$$V2.0; SMILES C[C@@H](O)[C@@H]1NC(=O)[C@@H]2CSSC[C@H](NC(=O)[C@H](CC3CCCCC3)NC(=O)[C@@H]3CCCN3C(=O)[C@@H]3CCCN3C(=O)[C@H](CC(=O)O)NC(=O)[C@H](CO)NC(=O)[C@H](CCCCN)NC1=O)C(=O)N[C@@H](CCCNC(=N)N)C(=O)N1CCC[C@@H]1C(=O)N1CCC[C@H]1C(=O)N[C@@H](C1CCCCC1)C(=O)N2) [Example 71]		70			
XCTASXPPQCY (HELM PEPTIDE1{[Nle].C.T.A.S.[CCCCCC[C@H](N[*:1])C(=O)[*:2]].P.P.Q.C.Y.[dP].P}$PEPTIDE1,PEPTIDE1,2:R3-10:R3|PEPTIDE1,PEPTIDE1,1:R1-13:R2$$$V2.0; SMILES CCCCCC[C@@H]1NC(=O)[C@H](CO)NC(=O)[C@H](C)NC(=O)[C@H]([C@@H](C)O)NC(=O)[C@@H]2CSSC[C@H](NC(=O)[C@H](CCC(N)=O)NC(=O)[C@@H]3CCCN3C(=O)[C@@H]3CCCN3C1=O)C(=O)N[C@@H](Cc1ccc(O)cc1)C(=O)N1CCC[C@@H]1C(=O)N1CCC[C@H]1C(=O)N[C@@H](CCCC)C(=O)N2) [Example 80]	35				
ICTASLPPQCY (HELM PEPTIDE1{I.C.T.A.S.L.P.P.Q.C.Y.[dP].P}$PEPTIDE1,PEPTIDE1,2:R3-10:R3|PEPTIDE1,PEPTIDE1,1:R1-13:R2$$$V2.0; SMILES CC[C@H](C)[C@@H]1NC(=O)[C@@H]2CCCN2C(=O)[C@H]2CCCN2C(=O)[C@H](Cc2ccc(O)cc2)NC(=O)[C@@H]2CSSC[C@H](NC1=O)C(=O)N[C@@H]([C@@H](C)O)C(=O)N[C@@H](C)C(=O)N[C@@H](CO)C(=O)N[C@@H](CC(C)C)C(=O)N1CCC[C@H]1C(=O)N1CCC[C@H]1C(=O)N[C@@H](CCC(N)=O)C(=O)N2) [Example 76]	71				
cyclo(FCTKSDPPICS[dP]L) (disulfide 2-10) [Example 51]	> 100000	91			
FCTKXDPPICS (HELM PEPTIDE1{F.C.T.K.[NC[C@H](N[*:1])C(=O)[*:2]].D.P.P.I.C.S.[dP].P}$PEPTIDE1,PEPTIDE1,2:R3-10:R3|PEPTIDE1,PEPTIDE1,1:R1-13:R2$$$V2.0; SMILES CC[C@H](C)[C@@H]1NC(=O)[C@@H]2CCCN2C(=O)[C@@H]2CCCN2C(=O)[C@H](CC(=O)O)NC(=O)[C@H](CN)NC(=O)[C@H](CCCCN)NC(=O)[C@H]([C@@H](C)O)NC(=O)[C@@H]2CSSC[C@H](NC1=O)C(=O)N[C@@H](CO)C(=O)N1CCC[C@@H]1C(=O)N1CCC[C@H]1C(=O)N[C@@H](Cc1ccccc1)C(=O)N2) [Example 25]		102	10	89.3	3.2

Results, then the binder that gave them:

IC50 [1] [nmol]	IC50 [2] [nmol]	% inhibition at 100 µM (Chymase, from human skin) [%]	% inhibition at 100 µM [3] [%]	% inhibition at 100 µM [1] [%]	Binder
43					XCTASXPPQCY (HELM PEPTIDE1{[Nle].C.T.A.S.[CC(C)CC[C@H](N[*:1])C(=O)[*:2]].P.P.Q.C.Y.[dP].P}$PEPTIDE1,PEPTIDE1,2:R3-10:R3|PEPTIDE1,PEPTIDE1,1:R1-13:R2$$$V2.0; SMILES CCCC[C@@H]1NC(=O)[C@@H]2CCCN2C(=O)[C@H]2CCCN2C(=O)[C@H](Cc2ccc(O)cc2)NC(=O)[C@@H]2CSSC[C@H](NC1=O)C(=O)N[C@@H]([C@@H](C)O)C(=O)N[C@@H](C)C(=O)N[C@@H](CO)C(=O)N[C@@H](CCC(C)C)C(=O)N1CCC[C@H]1C(=O)N1CCC[C@H]1C(=O)N[C@@H](CCC(N)=O)C(=O)N2) [Example 83]
> 100000	56	12.7	95		FCTKSDPPXCS (HELM PEPTIDE1{F.C.T.K.S.D.P.P.[Nle].C.S.[dP].P}$PEPTIDE1,PEPTIDE1,2:R3-10:R3|PEPTIDE1,PEPTIDE1,1:R1-13:R2$$$V2.0; SMILES CCCC[C@@H]1NC(=O)[C@@H]2CCCN2C(=O)[C@@H]2CCCN2C(=O)[C@H](CC(=O)O)NC(=O)[C@H](CO)NC(=O)[C@H](CCCCN)NC(=O)[C@H]([C@@H](C)O)NC(=O)[C@@H]2CSSC[C@H](NC1=O)C(=O)N[C@@H](CO)C(=O)N1CCC[C@@H]1C(=O)N1CCC[C@H]1C(=O)N[C@@H](Cc1ccccc1)C(=O)N2) [Example 53]
	87				cyclo(FCTKSDPPICS[dT]P) (disulfide 2-10) [Example 72]
	75	9.4	89.9	0.3	XCTKSDPPICS (HELM PEPTIDE1{[Nle].C.T.K.S.D.P.P.I.C.S.[dP].P}$PEPTIDE1,PEPTIDE1,2:R3-10:R3|PEPTIDE1,PEPTIDE1,1:R1-13:R2$$$V2.0; SMILES CCCC[C@@H]1NC(=O)[C@@H]2CCCN2C(=O)[C@H]2CCCN2C(=O)[C@H](CO)NC(=O)[C@@H]2CSSC[C@H](NC1=O)C(=O)N[C@@H]([C@@H](C)O)C(=O)N[C@@H](CCCCN)C(=O)N[C@@H](CO)C(=O)N[C@@H](CC(=O)O)C(=O)N1CCC[C@H]1C(=O)N1CCC[C@H]1C(=O)N[C@@H]([C@@H](C)CC)C(=O)N2) [Example 10]
29					cyclo([Nle]CT[Abu]SIPPQCY[dP]P) (disulfide 2-10) [Example 78]
66					XCTASXPPQCY (HELM PEPTIDE1{[Nle].C.T.A.S.[Nle].P.P.Q.C.Y.[dP].P}$PEPTIDE1,PEPTIDE1,2:R3-10:R3|PEPTIDE1,PEPTIDE1,1:R1-13:R2$$$V2.0; SMILES CCCC[C@@H]1NC(=O)[C@@H]2CCCN2C(=O)[C@H]2CCCN2C(=O)[C@H](Cc2ccc(O)cc2)NC(=O)[C@@H]2CSSC[C@H](NC1=O)C(=O)N[C@@H]([C@@H](C)O)C(=O)N[C@@H](C)C(=O)N[C@@H](CO)C(=O)N[C@@H](CCCC)C(=O)N1CCC[C@H]1C(=O)N1CCC[C@H]1C(=O)N[C@@H](CCC(N)=O)C(=O)N2) [Example 79]
	100	19.9	95	8.2	XCTKSDPPICR (HELM PEPTIDE1{[O=C([C@H](Cc1ccccc1Cl)N[*:1])[*:2]].C.T.K.S.D.P.P.I.C.R.[dP].P}$PEPTIDE1,PEPTIDE1,2:R3-10:R3|PEPTIDE1,PEPTIDE1,1:R1-13:R2$$$V2.0; SMILES CC[C@H](C)[C@@H]1NC(=O)[C@@H]2CCCN2C(=O)[C@@H]2CCCN2C(=O)[C@H](CC(=O)O)NC(=O)[C@H](CO)NC(=O)[C@H](CCCCN)NC(=O)[C@H]([C@@H](C)O)NC(=O)[C@@H]2CSSC[C@H](NC1=O)C(=O)N[C@@H](CCCNC(=N)N)C(=O)N1CCC[C@@H]1C(=O)N1CCC[C@H]1C(=O)N[C@@H](Cc1ccccc1Cl)C(=O)N2) [Example 13]
> 100000	91		86		cyclo(FCTKSDPPICS[dP]L) (disulfide 2-10) [Example 74]
	105		88.1	4.1	XCTKSDPPICS (HELM PEPTIDE1{[Nc1ccc(C[C@H](N[*:1])C(=O)[*:2])cc1].C.T.K.S.D.P.P.I.C.S.[dP].P}$PEPTIDE1,PEPTIDE1,2:R3-10:R3|PEPTIDE1,PEPTIDE1,1:R1-13:R2$$$V2.0; SMILES CC[C@H](C)[C@@H]1NC(=O)[C@@H]2CCCN2C(=O)[C@@H]2CCCN2C(=O)[C@H](CC(=O)O)NC(=O)[C@H](CO)NC(=O)[C@H](CCCCN)NC(=O)[C@H]([C@@H](C)O)NC(=O)[C@@H]2CSSC[C@H](NC1=O)C(=O)N[C@@H](CO)C(=O)N1CCC[C@@H]1C(=O)N1CCC[C@H]1C(=O)N[C@@H](Cc1ccc(N)cc1)C(=O)N2) [Example 9]
